Drawing on PMC6193142, this text covers stoichiometry N (molecules per microfibril repeat) for 1 substance.

This test has as its target fibrillin (of fibrillin microfibrils purified from the ciliary zonule) (bovine (endogenous in ciliary zonule)) (UniProt P98133). The test can be described thus: negative-stain TEM with single-particle 3D reconstruction; microfibrils purified from bovine ciliary zonule; 2797 repeat particles; 2-fold symmetry imposed along the microfibril axis; sub-models of bead, arm and interbead; number of chains judged from volume and from fitting domain models into the interbead density.

The substance “fibrillin (of fibrillin microfibrils purified from the ciliary zonule) (from UniProt P98133 25-2871) (natural protein)” gave a stoichiometry N (molecules per microfibril repeat) of 8.
